Reference: IntAct's records for PubMed 20133701

Target: T1, rara_human RARA (UniProt P10276)
T1 sequence: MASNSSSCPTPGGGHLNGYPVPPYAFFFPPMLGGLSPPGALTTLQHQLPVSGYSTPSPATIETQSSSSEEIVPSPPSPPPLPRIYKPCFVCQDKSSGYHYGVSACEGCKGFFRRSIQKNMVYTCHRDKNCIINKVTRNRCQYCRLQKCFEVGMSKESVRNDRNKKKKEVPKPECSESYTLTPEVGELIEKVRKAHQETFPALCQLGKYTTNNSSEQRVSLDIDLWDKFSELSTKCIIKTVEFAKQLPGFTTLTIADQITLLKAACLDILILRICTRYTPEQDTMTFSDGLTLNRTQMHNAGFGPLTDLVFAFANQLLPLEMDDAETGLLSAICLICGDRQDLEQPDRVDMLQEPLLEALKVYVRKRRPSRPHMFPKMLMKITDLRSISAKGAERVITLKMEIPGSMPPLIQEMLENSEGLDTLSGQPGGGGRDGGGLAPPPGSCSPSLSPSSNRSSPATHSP

LIM domain-containing protein ajuba (Mus musculus) (from UniProt Q91XC0) L292A;L293A;L295A;L418A;I419A;L420A;I488A;V489A;V491A
effect of a mutation on the interaction: disrupting interaction strength
